Source: patent US20170266254A1 (AILERON THERAPEUTICS, published 2017)
Bridges are numbered along the chain shown (N, C = ends). [ ]: non-standard residue; d: D form. S5 = C=CCCC[C@](C)(N)C(=O)O

T1: C-terminally 6x Histidine-tagged Beta-Catenin (aa 134-668, 59 KD) (UniProt P35222 134-668)
T1 construct: range 134-668; Armadillo repeat region
T1 sequence: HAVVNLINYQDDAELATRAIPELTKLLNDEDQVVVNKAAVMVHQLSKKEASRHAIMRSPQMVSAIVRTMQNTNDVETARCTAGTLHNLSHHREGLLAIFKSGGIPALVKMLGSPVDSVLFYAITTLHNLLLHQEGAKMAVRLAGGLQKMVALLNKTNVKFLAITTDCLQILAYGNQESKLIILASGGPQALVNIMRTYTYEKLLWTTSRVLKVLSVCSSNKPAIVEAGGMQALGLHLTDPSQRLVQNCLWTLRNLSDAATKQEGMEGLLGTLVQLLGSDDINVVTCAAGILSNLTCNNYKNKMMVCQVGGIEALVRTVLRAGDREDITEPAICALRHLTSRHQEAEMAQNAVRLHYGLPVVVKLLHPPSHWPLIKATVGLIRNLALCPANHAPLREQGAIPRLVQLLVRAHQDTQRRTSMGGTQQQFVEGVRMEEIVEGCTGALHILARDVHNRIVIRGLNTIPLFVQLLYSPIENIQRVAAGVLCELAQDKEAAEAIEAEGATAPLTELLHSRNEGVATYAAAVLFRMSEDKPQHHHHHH


What follows are binders tested against T1, C-terminally 6x Histidine-tagged … (assay: competitive fluorescence polarization, FAM-labelled linear probe as competitor, His-tagged beta-catenin 134-668).
In short: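 FP competition in 25 mM Tris-HCl pH 7.5, 200 mM NaCl, 5 mM CHAPS, 2 mM DTT at room temperature. Competitor peptides at 40–0.7 μM 2× working range, constant DMSO. Probe (benchmark peptide with N-terminal FAM via β-Ala spacer) from 25 nM 10× stock. Read after 3 h in the dark, ex 485/em 528 nm.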

Binder	IC50
Ac-LGANDELISF[S5]DEG[S5]QQEKSSN-NH2 (staple 11-15; SMILES CC[C@H](C)[C@H](NC(=O)[C@H](CC(C)C)NC(=O)[C@H](CCC(=O)O)NC(=O)[C@H](CC(=O)O)NC(=O)[C@H](CC(N)=O)NC(=O)[C@H](C)NC(=O)CNC(=O)[C@H](CC(C)C)NC(C)=O)C(=O)N[C@@H](CO)C(=O)N[C@@H](Cc1ccccc1)C(=O)N[C@@]1(C)CCCC=CCCC[C@@](C)(C(=O)N[C@@H](CCC(N)=O)C(=O)N[C@@H](CCC(N)=O)C(=O)N[C@@H](CCC(=O)O)C(=O)N[C@@H](CCCCN)C(=O)N[C@@H](CO)C(=O)N[C@@H](CO)C(=O)N[C@@H](CC(N)=O)C(N)=O)NC(=O)CNC(=O)[C@H](CCC(=O)O)NC(=O)[C@H](CC(=O)O)NC1=O) [SP40]	6.63 µM
Ac-LGANDELISF[S5]DEG[S5]QEQKSSN-NH2 (staple 11-15; SMILES CC[C@H](C)[C@H](NC(=O)[C@H](CC(C)C)NC(=O)[C@H](CCC(=O)O)NC(=O)[C@H](CC(=O)O)NC(=O)[C@H](CC(N)=O)NC(=O)[C@H](C)NC(=O)CNC(=O)[C@H](CC(C)C)NC(C)=O)C(=O)N[C@@H](CO)C(=O)N[C@@H](Cc1ccccc1)C(=O)N[C@@]1(C)CCCC=CCCC[C@@](C)(C(=O)N[C@@H](CCC(N)=O)C(=O)N[C@@H](CCC(=O)O)C(=O)N[C@@H](CCC(N)=O)C(=O)N[C@@H](CCCCN)C(=O)N[C@@H](CO)C(=O)N[C@@H](CO)C(=O)N[C@@H](CC(N)=O)C(N)=O)NC(=O)CNC(=O)[C@H](CCC(=O)O)NC(=O)[C@H](CC(=O)O)NC1=O) [SP41]	19.5 µM
Ac-LGANDELISF[S5]DQG[S5]QQEKSSN-NH2 (staple 11-15; SMILES CC[C@H](C)[C@H](NC(=O)[C@H](CC(C)C)NC(=O)[C@H](CCC(=O)O)NC(=O)[C@H](CC(=O)O)NC(=O)[C@H](CC(N)=O)NC(=O)[C@H](C)NC(=O)CNC(=O)[C@H](CC(C)C)NC(C)=O)C(=O)N[C@@H](CO)C(=O)N[C@@H](Cc1ccccc1)C(=O)N[C@@]1(C)CCCC=CCCC[C@@](C)(C(=O)N[C@@H](CCC(N)=O)C(=O)N[C@@H](CCC(N)=O)C(=O)N[C@@H](CCC(=O)O)C(=O)N[C@@H](CCCCN)C(=O)N[C@@H](CO)C(=O)N[C@@H](CO)C(=O)N[C@@H](CC(N)=O)C(N)=O)NC(=O)CNC(=O)[C@H](CCC(N)=O)NC(=O)[C@H](CC(=O)O)NC1=O) [SP44]	3.75 µM
Ac-LGANDELISF[S5]DQG[S5]QEQKSSN-NH2 (staple 11-15; SMILES CC[C@H](C)[C@H](NC(=O)[C@H](CC(C)C)NC(=O)[C@H](CCC(=O)O)NC(=O)[C@H](CC(=O)O)NC(=O)[C@H](CC(N)=O)NC(=O)[C@H](C)NC(=O)CNC(=O)[C@H](CC(C)C)NC(C)=O)C(=O)N[C@@H](CO)C(=O)N[C@@H](Cc1ccccc1)C(=O)N[C@@]1(C)CCCC=CCCC[C@@](C)(C(=O)N[C@@H](CCC(N)=O)C(=O)N[C@@H](CCC(=O)O)C(=O)N[C@@H](CCC(N)=O)C(=O)N[C@@H](CCCCN)C(=O)N[C@@H](CO)C(=O)N[C@@H](CO)C(=O)N[C@@H](CC(N)=O)C(N)=O)NC(=O)CNC(=O)[C@H](CCC(N)=O)NC(=O)[C@H](CC(=O)O)NC1=O) [SP45]	10.9 µM
Ac-LGANDELISF[S5]DEG[S5]QQQKSSN-NH2 (staple 11-15; SMILES CC[C@H](C)[C@H](NC(=O)[C@H](CC(C)C)NC(=O)[C@H](CCC(=O)O)NC(=O)[C@H](CC(=O)O)NC(=O)[C@H](CC(N)=O)NC(=O)[C@H](C)NC(=O)CNC(=O)[C@H](CC(C)C)NC(C)=O)C(=O)N[C@@H](CO)C(=O)N[C@@H](Cc1ccccc1)C(=O)N[C@@]1(C)CCCC=CCCC[C@@](C)(C(=O)N[C@@H](CCC(N)=O)C(=O)N[C@@H](CCC(N)=O)C(=O)N[C@@H](CCC(N)=O)C(=O)N[C@@H](CCCCN)C(=O)N[C@@H](CO)C(=O)N[C@@H](CO)C(=O)N[C@@H](CC(N)=O)C(N)=O)NC(=O)CNC(=O)[C@H](CCC(=O)O)NC(=O)[C@H](CC(=O)O)NC1=O) [SP46]	23.7 µM
Ac-LGANDQLISF[S5]DEG[S5]QEEKSSN-NH2 (staple 11-15; SMILES CC[C@H](C)[C@H](NC(=O)[C@H](CC(C)C)NC(=O)[C@H](CCC(N)=O)NC(=O)[C@H](CC(=O)O)NC(=O)[C@H](CC(N)=O)NC(=O)[C@H](C)NC(=O)CNC(=O)[C@H](CC(C)C)NC(C)=O)C(=O)N[C@@H](CO)C(=O)N[C@@H](Cc1ccccc1)C(=O)N[C@@]1(C)CCCC=CCCC[C@@](C)(C(=O)N[C@@H](CCC(N)=O)C(=O)N[C@@H](CCC(=O)O)C(=O)N[C@@H](CCC(=O)O)C(=O)N[C@@H](CCCCN)C(=O)N[C@@H](CO)C(=O)N[C@@H](CO)C(=O)N[C@@H](CC(N)=O)C(N)=O)NC(=O)CNC(=O)[C@H](CCC(=O)O)NC(=O)[C@H](CC(=O)O)NC1=O) [SP53]	24.4 µM
Ac-NL[S5]NVK[S5]SLVNQS-NH2 (staple 3-7; SMILES CC(=O)N[C@@H](CC(N)=O)C(=O)N[C@@H](CC(C)C)C(=O)N[C@@]1(C)CCCC=CCCC[C@@](C)(C(=O)N[C@@H](CO)C(=O)N[C@@H](CC(C)C)C(=O)N[C@H](C(=O)N[C@@H](CC(N)=O)C(=O)N[C@@H](CCC(N)=O)C(=O)N[C@@H](CO)C(N)=O)C(C)C)NC(=O)[C@H](CCCCN)NC(=O)[C@H](C(C)C)NC(=O)[C@H](CC(N)=O)NC1=O, also called Ac-NL$NVK$SLVNQS-NH2) [SP1]	≥ 100 µM
Ac-VERGLANVK[S5]SLV[S5]ES-NH2 (staple 10-14; SMILES CC(=O)N[C@H](C(=O)N[C@@H](CCC(=O)O)C(=O)N[C@@H](CCCNC(=N)N)C(=O)NCC(=O)N[C@@H](CC(C)C)C(=O)N[C@@H](C)C(=O)N[C@@H](CC(N)=O)C(=O)N[C@H](C(=O)N[C@@H](CCCCN)C(=O)N[C@@]1(C)CCCC=CCCC[C@@](C)(C(=O)N[C@@H](CCC(=O)O)C(=O)N[C@@H](CO)C(N)=O)NC(=O)[C@H](C(C)C)NC(=O)[C@H](CC(C)C)NC(=O)[C@H](CO)NC1=O)C(C)C)C(C)C) [SP36]	≥ 100 µM
Ac-RNLA[S5]VKS[S5]LVNES-NH2 (staple 5-9; SMILES CC(=O)N[C@@H](CCCNC(=N)N)C(=O)N[C@@H](CC(N)=O)C(=O)N[C@@H](CC(C)C)C(=O)N[C@@H](C)C(=O)N[C@@]1(C)CCCC=CCCC[C@@](C)(C(=O)N[C@@H](CC(C)C)C(=O)N[C@H](C(=O)N[C@@H](CC(N)=O)C(=O)N[C@@H](CCC(=O)O)C(=O)N[C@@H](CO)C(N)=O)C(C)C)NC(=O)[C@H](CO)NC(=O)[C@H](CCCCN)NC(=O)[C@H](C(C)C)NC1=O, also called Ac-RNLA$VKS$LVNES-NH2) [SP3]	≥ 100 µM
Ac-SA[S5]RNL[S5]DVKSSLV-NH2 (staple 3-7; SMILES CC(=O)N[C@@H](CO)C(=O)N[C@@H](C)C(=O)N[C@@]1(C)CCCC=CCCC[C@@](C)(C(=O)N[C@@H](CC(=O)O)C(=O)N[C@H](C(=O)N[C@@H](CCCCN)C(=O)N[C@@H](CO)C(=O)N[C@@H](CO)C(=O)N[C@@H](CC(C)C)C(=O)N[C@H](C(N)=O)C(C)C)C(C)C)NC(=O)[C@H](CC(C)C)NC(=O)[C@H](CC(N)=O)NC(=O)[C@H](CCCNC(=N)N)NC1=O, also called Ac-SA$RNL$DVKSSLV-NH2) [SP42]	≥ 100 µM
Ac-SA[S5]RDL[S5]NVKSSLV-NH2 (staple 3-7; SMILES CC(=O)N[C@@H](CO)C(=O)N[C@@H](C)C(=O)N[C@@]1(C)CCCC=CCCC[C@@](C)(C(=O)N[C@@H](CC(N)=O)C(=O)N[C@H](C(=O)N[C@@H](CCCCN)C(=O)N[C@@H](CO)C(=O)N[C@@H](CO)C(=O)N[C@@H](CC(C)C)C(=O)N[C@H](C(N)=O)C(C)C)C(C)C)NC(=O)[C@H](CC(C)C)NC(=O)[C@H](CC(=O)O)NC(=O)[C@H](CCCNC(=N)N)NC1=O, also called Ac-SA$RDL$NVKSSLV-NH2) [SP43]	≥ 100 µM
SP50 (not fully specified; N-terminal acetyl; C-terminal amide; PEG3 = NH-(PEG)3-COOH (16 atoms) linker between the two peptide parts; $ = (S)-alpha-(2'-pentenyl)alanine at positions 11 and 15 of the first part and at positions 2 and 6 of the second part, each pair joined by an all-carbon crosslinker with one double bond, The two peptide parts are joined by a non-peptide PEG3 spacer, not by a peptide bond) peptide: LGANDELISFADEGAQEEKSS AARDLANVKSSLV	1.1 µM
SP51 (not fully specified; N-terminal acetyl; C-terminal amide; PEG4 = NH-(PEG)4-COOH (19 atoms) linker between the two peptide parts; $ = (S)-alpha-(2'-pentenyl)alanine at positions 11 and 15 of the first part and at positions 2 and 6 of the second part, each pair joined by an all-carbon crosslinker with one double bond, The two peptide parts are joined by a non-peptide PEG4 spacer, not by a peptide bond) peptide: LGANDELISFADEGAQEEKSS AARDLANVKSSLV	0.603 µM
Ac-SA[S5]RDL[S5]NVKSSLV-NH2 (staple 3-7; SMILES CC(=O)N[C@@H](CO)C(=O)N[C@@H](C)C(=O)N[C@@]1(C)CCCC=CCCC[C@@](C)(C(=O)N[C@@H](CC(N)=O)C(=O)N[C@H](C(=O)N[C@@H](CCCCN)C(=O)N[C@@H](CO)C(=O)N[C@@H](CO)C(=O)N[C@@H](CC(C)C)C(=O)N[C@H](C(N)=O)C(C)C)C(C)C)NC(=O)[C@H](CC(C)C)NC(=O)[C@H](CC(=O)O)NC(=O)[C@H](CCCNC(=N)N)NC1=O, also called Ac-SA$RDL$NVKSSLV-NH2) [SP54]	≥ 100 µM
